Assay results reported in US8620595B2, “Methods for determining the retention of peptides in reverse phase chromatography using linear solvent strength theory” (University of Manitoba, priority 2010, dated 2013).

Assay: Determination of S from retention time shift Δ relative to P3 at two gradient slopes, nano-RP-HPLC MS of spiked tryptic digest
Format: physicochemical
Conditions: experimental S value, LC-MS runs of model peptide mixture
Method: Proteins and protein digestion. Tryptic digests of two different protein mixtures were utilized. The “test peptide mixture” contained human proteins: albumin, transferrin, fibrinogen. The “model peptide mixture” contained bovine proteins: albumin, transferrin, fibrinogen, catalase. Equimolar mixtures of the proteins were prepared, reduced with DTT, alkylated with iodoacetamide and digested with sequencing-grade modified trypsin (Promega, Madison, Wis.). Prior to nano-LC MS/MS analysis, mixtures were diluted with buffer A (0.1% formic acid in water) and spiked with the 6 standard peptides P1-P6^24 for test mixture and the set of 11 model peptides (described elsewhere^23) for a model mixture. All dilutions were performed to provide an injection of ˜100 fmole of each component into the nanoRP-HPLC MS system.
Chromatography. All chromatographic experiments were conducted at a controlled temperature of 22-23° C. For isocratic measurement of the slope values, a micro-Agilent 1100 Series system (Agilent Technologies, Wilmington, Del.), was used with a 1 mm×100 mm 5 μm Luna C18(2) (Phenomenex, Torrance, Calif.) column and a UV detector operated at 214 nm. Both eluents A (water) and B (acetonitrile) contained 0.1% formic acid as ion-pairing modifier. Stock solutions of the 11 standard peptides (˜1 mg/ml) were prepared by dissolving each peptide in 1 ml of 0.1% FA in water or a 20% acetonitrile solution. Ten microliters of sample was injected. Individual peptides were diluted to provide ˜0.5-1 μg injection of each component using a 10 μl loop. The dead volume of the column and connecting tubings was determined by injecting a non-retained compound (water) and measuring the elution time of the negative peak at a 150 μL/min flow rate. Retention factors for isocratic elution were calculated using the formula: k=(tR−t0)/t0c; where tR is the retention time, t0 is the system (column and tubings) dead time, and t0c is the column dead time. Additional details of measuring S-values via constructing log k vs. φ plots are provided elsewhere.^24 The nano-LC MS/MS experiments were conducted using splitless Tempo LC system (Eksigent, Dublin, Calif.) with 20 μL sample injection via a 300 μm×5 mm PepMap100 (Dionex, Sunnyvale, Calif.) trap-column and a 100 μm×200 mm analytical column packed with 5 μm Luna C18(2) (Phenomenex, Torrance, Calif.). Tryptic digests of the mixtures were spiked with calibrating peptides (see Table 1) as described above, injected on the trap-column using buffer A as a carrier and separated using 0.1875, 0.375 and 0.75 percent acetonitrile per minute linear gradients starting from 0.5% acetonitrile at 500 nL/min flow rate. The composition of both eluents A and B was identical to one described above for normal-flow system. Gradient programs consisted of a 0.5-40% linear increase of buffer B in 213.2, 106.6 and 53.3 minutes, respectively. After each run the gradient columns were washed with 80% B for 3 minutes and equilibrated with the starting A:B ratio for 18 minutes.
Mass spectrometry. A QStar Elite mass spectrometer (Applied Biosystems, Foster City, Calif.) equipped with a MicrolonSpray II source was used in standard MS/MS information dependent acquisition (IDA) mode for LC-ESI analyses. Protein identification was performed using Protein Pilot 3.0 (Applied Biosystems, Foster City, Calif.) with a restricted database containing target protein sequences and the sequences of standard peptides. Retention times of identified species (peak maxima) were assigned manually.
These two ways of measurement have been combined to provide a highly accurate and fast way of determining S for an extensive sets of peptides (see FIG. 3). First, precise isocratic measurement of S is performed in normal flow conditions with UV detection for a set of synthetic “S-calibrating” peptides. […]

Going from AAANFFSASCVPCADQSSFPK to AEFVEVTK, the “Slope (experimental)” value falls from 35.1 to 29.046.

Going from AFALECIR to AIQISYNPDQPSKPNNIESATK, the “Slope (experimental)” value rises from 26.057 to 42.444.

First: ALEHKVDLEDYK
Second: AMTNLR
The “Slope (experimental)” value of the first is higher: 39.365 for the first, 32.841 for the second.

Compared with ANEGLTWNSLK, APVDAFKECHLAQVPSHAVVAR is higher in “Slope (experimental)” value: 27.455 for the first, 46.264 for the second.

Going from CCTESLVNR to CGLVPVLAENYK, the “Slope (experimental)” value falls from 33.998 to 27.604.

Going from CLASIAK to CLMEGAGDVAFVK, the “Slope (experimental)” value rises from 30.212 to 30.666.

Going from CLQDGAGDVAFVK to DAQLFIQK, the “Slope (experimental)” value falls from 31.382 to 24.282.

Going from “DGTRKPVTDAENCHLAR [tryptic peptide of the model peptide mixture, 5 positively charged groups]” to DIQYLPILK, the “Slope (experimental)” value falls from 50.359 to 25.291.

Going from DKVVQLEANCQEPCQDTVK to DNPQTHYYAVAVVK, the “Slope (experimental)” value falls from 42.675 to 34.815.

First: DNPQTHYYAVAVVKK
Second: DTDFKLNELR
The “Slope (experimental)” value of the first is higher: 39.552 for the first, 30.459 for the second.

Going from ECCHGDLLECADDRADLAK to ECHLAQVPSHAVVAR, the “Slope (experimental)” value rises from 40.256 to 44.148.

With “EDLIWK [tryptic peptide detected in the model peptide mixture]” the “Slope (experimental)” value was 21.902.

Same assay, conditions: experimental S, LC-MS runs of model peptide mixture, formic acid

Compared with AAQKPDVLTTGGGNPVGDK, AAQKPDVLTTGGGNPVGDKLNSLTVGPR is higher in “Slope (experimental)” value: 41.223 for the first, 41.986 for the second.

Going from ALLEMQQTK to ANEGLTWNSLKDK, the “Slope (experimental)” value rises from 26.288 to 32.686.

First: APVDAFK
Second: ARPATATVGQK
The “Slope (experimental)” value of the first is lower: 26.378 for the first, 51.675 for the second.

Compared with AVLKDGPLTGTYR, AVVQDPALKPLALVYGEATSR is higher in “Slope (experimental)” value: 35.435 for the first, 35.627 for the second.

Going from AWSVAR to CACSNHEPYFGYSGAFK, the “Slope (experimental)” value rises from 26.993 to 35.846.

First: CCAADDKEACFAVEGPK
Second: CGLVPVLAENR
The “Slope (experimental)” value of the first is higher: 38.207 for the first, 26.128 for the second.

Compared with CGLVPVLAENRK, CLVEK is lower in “Slope (experimental)” value: 30.745 for the first, 27.661 for the second.

Compared with DALLFPSFIHSQK, DALLFPSFIHSQKR is higher in “Slope (experimental)” value: 29.523 for the first, 30.728 for the second.

Going from DDPHACYSTVFDK to DDPHACYSTVFDKLK, the “Slope (experimental)” value rises from 32.575 to 35.483.

First: DDSPDLPK
Second: DFPIANGER
The “Slope (experimental)” value of the first is higher: 30.875 for the first, 26.539 for the second.

Going from DGPLTGTYR to DKDDFFTR, the “Slope (experimental)” value falls from 28.947 to 25.342.

Going from DKPDNFQLFQSPHGK to DLEEGIQTLMGR, the “Slope (experimental)” value falls from 32.597 to 26.684.

Going from DLGEEHFK to “DLLFK [tryptic peptide detected in the model peptide mixture]”, the “Slope (experimental)” value falls from 32.597 to 18.223.

Going from “DLLFR [tryptic peptide detected in the model peptide mixture]” to DNCCILDER, the “Slope (experimental)” value rises from 18.36 to 28.077.

Going from DQLVDMK to DQTVIQNTDGNNNEAWAK, the “Slope (experimental)” value rises from 25.899 to 34.721.

First: DSADGFLK
Second: DSADGFLKIPSK
The “Slope (experimental)” value of the first is lower: 22.49 for the first, 30.089 for the second.

Compared with “DSALGFLR [tryptic peptide detected in the model peptide mixture]”, DSLFNYQK is higher in “Slope (experimental)” value: 21.784 for the first, 24.58 for the second.

Going from ECCDKPLLEK to ECCHGDLLECADDR, the “Slope (experimental)” value falls from 35.555 to 34.957.

Going from ECVPNSNER to EDGGGWWVYNR, the “Slope (experimental)” value falls from 44.66 to 23.696.

First: EDGSDPPSGDFLTEGGGVR
Second: EEGSVSSGTKQEFHTGK
The “Slope (experimental)” value of the first is lower: 30.812 for the first, 48.449 for the second.

Same assay, conditions: model peptide mixture (tryptic digest of bovine proteins), 0.75 and 0.1875% acetonitrile per minute gradients, formic acid, S from Δ vs. S curve of S-calibrating peptides

Compared with “DGTRKPVTDAENCHLAR [tryptic peptide of the model peptide mixture, 5 positively charged groups]”, “DLLFK [tryptic peptide detected in the model peptide mixture]” is lower in “experimental S-value”: 50.4 for the first, 18.2 for the second.

Going from “DLLFR [tryptic peptide detected in the model peptide mixture]” to “DSALGFLR [tryptic peptide detected in the model peptide mixture]”, the “experimental S-value” rises from 18.4 to 21.8.

With “EDLIWK [tryptic peptide detected in the model peptide mixture]” the “experimental S-value” was 21.9.
